# The supplement of paper PMC12042874
# ± gives the uncertainty stated by the source.
# Assay: amyloid nucleation score (Sup35N fusion, yeast selection) (log enrichment); library NNK1; higher = more nucleation; inactive = no reads after selection
# Method in brief: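 The nucleation score is a DiMSum log enrichment of output over input reads, centred on the mode score of non-aggregating sequences. Sequences under 100 input reads were excluded, and reads came from Illumina sequencing of plasmid inserts. Psi-negative yeast expressing Sup35N fused to peptides of 20 random codons were induced with 100 μM copper sulfate for 24 hours and grown 7 days at 30°C on medium lacking adenine and uracil. Random libraries had three technical output replicates.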
row,Substance,amyloid nucleation score
1,DPYTHYVAMRINCYWEMCAL,-1.06 ± 0.93
2,DQFCDMPTWVLVMYKSRDFL,0.862 ± 0.55
3,DQSWSREWPCVLVHHVHYKD,0.626 ± 0.28
4,DQVTYRPWLRELRRQAMCLQ,0.027 ± 1.7
5,DRDASSLGFIFFFGCLEGLT,-0.93 ± 0.76
6,DRHRLPILVFLITNRTQRMV,-0.098 ± 1.3
7,DRLVDTNYRASGYPVRYMVS,-1.31 ± 0.78
8,DRRIEYVVDLGSSCGMTTHV,0.049 ± 0.41
9,DRWDFMQLNCIHLEA,0.885 ± 0.88
10,DSADMLILILYAAVLLYTIF,-0.278 ± 0.69
11,DSAIWDKNFSLDMGSGFMHC,-0.125 ± 1.7
12,DSCLSYFAILYFRLGFTRMW,inactive
13,DSEDSNLSCLLYTQC,0.153 ± 0.16
14,DSFMAENMWGLFFDKSESPA,-0.517 ± 0.95
15,DSFQGRS,0.255 ± 0.47
16,DSIGVTH,-0.002 ± 0.41
17,DSKPVIILR,-0.516 ± 0.27
18,DSLGGSKSCGSKL,0.891 ± 0.97
19,DSMSRREQG,-0.437 ± 0.73
20,DSSHVRLWQYWIMWMLVVNA,1.06 ± 0.39
21,DSSRNGKF,-0.563 ± 0.64
22,DSVNRLLSCPINKMLWSNYS,0.233 ± 0.22

row,Substance,amyloid nucleation score
1,DTSVFWVKIYIFGSISHWAG,0.606 ± 1
2,DVKCAVTLVL,-0.055 ± 0.6
3,DVTLVNFIG,0.285 ± 0.48
4,DVYVACTSFDLELCICVMRL,0.237 ± 0.7
5,DVYVWGGCLVSIKVLWMAWG,0.117 ± 0.94
6,DWHGLTKVMITW,3.31 ± 0.11
7,DWNSNPPHSASAGLPLRFWK,inactive
8,DWVVFWIRSFILSPPRAHQN,0.025 ± 0.41
9,DYAGWPYLPSMHQATLQDAR,0.275 ± 1.2
10,DYCRLMAWLSL,0.315 ± 0.51
11,DYDGWQLPMCNNITMTWKVC,2.7 ± 0.12
12,DYFIKWFIYRPLTS,-0.504 ± 0.6
13,DYGVMWI,0.296 ± 0.41
14,DYYYSFMKTANR,-0.087 ± 0.3
15,ECCYWPREK,0.422 ± 0.32
16,ECSRGVVIIWDMHVGGIDEC,1.79 ± 0.41
17,ECVKTVTLVNYRVLRWSSVC,0.129 ± 0.35
18,EDMTLMLNNFSPILAIGWWT,1.25 ± 0.25
19,EDNRKIRRVMSIQS,0.063 ± 0.57
20,EDNWHLRVQ,0.088 ± 0.29
21,EEYNVNCTSFVGRFSRC,-0.008 ± 0.5
22,EFFRVMPGNT,3.68 ± 0.13

row,Substance,amyloid nucleation score
1,EFVLGGASRVELY,-0.624 ± 0.64
2,EFYSVTIGNWAMNRTHWRVN,0.461 ± 0.69
3,EFYYMKLRYRVRRKF,-0.716 ± 0.45
4,EGHWGFWPIGSFTCTSFLVY,0.86 ± 0.58
5,EGLLFYEYSSMCVEKDWIKN,-0.136 ± 0.43
6,EGLNNSLSSYTKDWAQVVLN,-0.079 ± 0.32
7,EGTSPHMHSIRFTLSQLPSF,0.236 ± 1.1
8,EGVNYIMKDVLLVDTKVAEN,-0.175 ± 0.66
9,EHLLCVSRCMLSSNLVTNCA,-0.113 ± 0.94
10,EHRLR,0.477 ± 0.59
11,EIMKCFNFTHMVEMKSMKRN,2.62 ± 0.087
12,EIQGNLNILSLLGLSRRSKG,0.016 ± 0.72
13,EIRKNTASMIMKLCIYIVGA,-0.007 ± 0.45
14,EIVACSWKKELIRAW,-0.209 ± 0.38
15,EIWWMVKVQLSVEYSSGNRL,1.16 ± 0.39
16,EKLNFSNLEGFRGFRLKGSR,-0.271 ± 1.4
17,ELGPRPHTFLEFAGICVGGM,-0.422 ± 1.4
18,ELKSPCNVSPIWSRSRQTST,0.216 ± 0.68
19,ELLACGIKRRVVKTGVRTAY,-0.407 ± 1.2
20,ELNPMFKTQHWLNSWNIWLL,2.47 ± 0.089
21,ELRSIDTWYPASGCML,-0.187 ± 0.29
22,ELSDTVFRRVCNLIVMVTPV,1.05 ± 0.4

row,Substance,amyloid nucleation score
1,ELVISMGRLWVG,2.02 ± 0.17
2,ELVLSSSWFRRNSYALCKLR,0.716 ± 1
3,EMAFISYH,0.4 ± 1.1
4,ENIALIYLECVFKVGSRCFE,0.198 ± 0.24
5,ENQPVPLQDLKGAV,-0.352 ± 1.2
6,ERLFELKCPNFCAELGSDS,0.24 ± 0.41
7,ERMGDSQGPKAGLWSFKYP,-0.226 ± 0.97
8,ERQLKEEY,0.06 ± 0.33
9,ESAFHASVGALRMHTSSRVC,1.09 ± 0.35
10,ESDPGCPVAVIKGPCT,0.225 ± 0.8
11,ESNMGNGSRGIDV,0.821 ± 1.1
12,ESTAQSEV,-0.237 ± 0.42
13,ESVIFFSCTYSSMMVSWTSR,0.382 ± 1.4
14,ETARLCRWSYK,2.22 ± 0.18
15,ETGSDEI,-0.55 ± 0.39
16,ETSSPLLEGG,0.554 ± 0.55
17,EVAMVYFKCVLFITSDSKQR,-0.823 ± 1.1
18,EVDFNSSFTWSHMSSKCRMF,-0.046 ± 0.54
19,EVGMHNMACADSSVCMRSVL,0.472 ± 0.6
20,EYAVIGKS,-0.186 ± 1
21,EYFRSTCRRATLSDPSMMHH,0.185 ± 0.35
